What was measured:
EccA1 ATPase, wild type = EccA1 ATPase, wild type (M. tuberculosis H37Rv, UniProt P9WPH9 1-573); experiment: SPR
SEC = molecular target: the molecule itself; experiment: SEC

Chain of EccA1 ATPase, wild type (P9WPH9 whole entry): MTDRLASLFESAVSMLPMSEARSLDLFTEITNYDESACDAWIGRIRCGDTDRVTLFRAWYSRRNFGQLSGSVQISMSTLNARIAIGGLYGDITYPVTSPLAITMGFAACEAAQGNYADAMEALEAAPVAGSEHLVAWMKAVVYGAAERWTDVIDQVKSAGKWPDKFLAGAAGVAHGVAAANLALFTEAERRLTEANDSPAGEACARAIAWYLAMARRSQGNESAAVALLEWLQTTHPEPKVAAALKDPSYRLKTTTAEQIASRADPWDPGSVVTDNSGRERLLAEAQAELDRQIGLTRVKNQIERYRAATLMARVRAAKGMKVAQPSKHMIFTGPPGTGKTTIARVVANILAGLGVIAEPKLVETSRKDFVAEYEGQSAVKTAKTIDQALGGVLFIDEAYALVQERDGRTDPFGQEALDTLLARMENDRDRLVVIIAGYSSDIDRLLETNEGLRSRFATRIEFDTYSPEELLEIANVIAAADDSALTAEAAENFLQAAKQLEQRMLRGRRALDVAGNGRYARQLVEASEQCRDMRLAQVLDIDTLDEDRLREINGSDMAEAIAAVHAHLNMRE

Row | Binder | Kd (EccA1 ATPase, wild type) [µM] | stoichiometry N (SEC)
1 | EspC (ESX-1 secreted protein C), wild type (natural protein) MMTENLTVQPERLGVLASHHDNAAVDASSGVEAAAGLGESVAITHGPYCSQFNDTLNVYLTAHNALGSSLHTAGVDLAKSLRIAAKIYSEADEAWRKAIDGLFT | ~0.14 | –
2 | EspC-Δ5 truncated mutant (domain or fragment) MTENLTVQPERLGVLASHHDNAAVDASSGVEAAAGLGESVAITHGPYCSQFNDTLNVYLTAHNALGSSLHTAGVDLAKSLRIAAKIYSEADEAWRKAID | ~6.7 | 6
3 | EspC-Δ10 truncated mutant (domain or fragment) MMTENLTVQPERLGVLASHHDNAAVDASSGVEAAAGLGESVAITHGPYCSQFNDTLNVYLTAHNALGSSLHTAGVDLAKSLRIAAKIYSEADEA | ~8.1 | 6
4 | EspC-Δ20 truncated mutant (domain or fragment) MMTENLTVQPERLGVLASHHDNAAVDASSGVEAAAGLGESVAITHGPYCSQFNDTLNVYLTAHNALGSSLHTAGVDLAKSLRIA | – | 6

From article doi:10.1101/2021.09.24.461649 (bioRxiv, 2021)
